Data set [1] deals with HeLa Kyoto. Nature of the data set: solubility in G1/S (NP-40 vs SDS abundance) (log2 ratio); higher = more soluble. The following applies: cell cycle stage: G1/S.
The subject of data set [2] is HeLa Kyoto. Description: melting temperature (median over replicates), in situ; higher = more thermally stable.
Data set [3] has as its system HeLa Kyoto. Description: solubility change mitosis vs G1/S (difference of NP-40 vs SDS log2 ratios) (log2 ratio difference); higher = more soluble in mitosis.
Data set [4] concerns HeLa Kyoto. Nature of the data set: thermal stability score vs G1/S (z-score of summed log2 fold changes over temperatures); higher = more thermally stable than in G1/S.
Setting [5] is: cell cycle stage: early G1 (4.5 h after nocodazole release).
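Wherever melting temperature (median over replicates), in situ is given: HeLa Kyoto cells synchronized by double thymidine or nocodazole block, proteins quantified by TMT10plex mass spectrometry, three independent biological replicates.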
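Wherever solubility change mitosis vs G1/S (difference of NP-40 vs SDS log2 ratios) is given: synchronized HeLa Kyoto cells (double thymidine block for G1/S, nocodazole release for mitosis), protein amounts in NP-40 versus SDS lysates quantified by mass spectrometry, three biological replicates.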
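Wherever solubility in G1/S (NP-40 vs SDS abundance) is given: HeLa Kyoto cells arrested at G1/S by double thymidine block, proteins quantified by TMT10plex mass spectrometry in mild NP-40 versus SDS extracts, three biological replicates.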
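Wherever thermal stability score vs G1/S (z-score of summed log2 fold changes over temperatures) is given: synchronized HeLa Kyoto cells, proteins quantified by TMT10plex mass spectrometry, three biological replicates, mitosis taken 0.5 h after nocodazole release, G1/S directly after double thymidine block.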

“MAAVPELLQQQEEDRSKLRSVSVDLNVDPSLQIDIPDALSERDKVKFTVHTKTTLPTFQSPEFSVTRQHEDFVWLHDTLIETTDYAGLIIPPAPTKPDFDGPREKMQKLGEGEGSMTKEEFAKMKQELEAEYLAVFKKTVSSHEVFLQRLSSHPVLSKDRNFHVFLEYDQDLSVRRKNTKEMFGGFFKSVVKSADEVLFTGVKEVDDFFEQEKNFLINYYNRIKDSCVKADKMTRSHKNVADDYIHTAACLHSLALEEPTVIKKYLLKVAELFEKLRKVEGRVSSDEDLKLTELLRYYMLNIEAAKDLLYRRTKALIDYENSNKALDKARLKSKDVKLAEAHQQECCQKFEQLSESAKEELINFKRKRVAAFRKNLIEMSELEIKHARNNVSLLQSCIDLFKNN [SNX5]”: the “solubility in G1/S (log2)” value with HeLa Kyoto [1] amounted to 0.468. Moreover, the melting temperature with HeLa Kyoto [2] (cell cycle stage: G1/S) is 52.3 °C; in the data set on HeLa Kyoto [2] (cell cycle stage: mitosis), 50.9 °C. For the same sequence, the “solubility change mitosis (log2)” value in the data set with HeLa Kyoto [3] was -0.0436. Also, the results for the thermal stability score with HeLa Kyoto [4] (setting [5]) and with HeLa Kyoto [4] (cell cycle stage: mitosis) were 0.949 and -0.872, respectively.

Take “MAASPGPAGVGGAGAVYGSGSSGFALDSGLEIKTRSVEQTLLPLVSQITTLINHKDNTKKSDKTLQAIQRVGQAVNLAVGRFVKVGEAIANENWDLKEEINIACIEAKQAGETIAALTDITNLNHLESDGQITIFTDKTGVIKAARLLLSSVTKVLLLADRVVIKQIITSRNKVLATMERLEKVNSFQEFVQIFSQFGNEMVEFAHLSGDRQNDLKDEKKKAKMAAARAVLEKCTMMLLTASKTCLRHPNCESAHKNKEGVFDRMKVALDKVIEIVTDCKPNGETDISSISIFTGIKEFKMNIEALRENLYFQSKENLSVTLEVILERMEDFTDSAYTSHEHRERILELSTQARMELQQLISVWIQAQSKKTKSIAEELELSILKISHSLNELKKELHSTATQLAADLLKYHADHVVLKALKLTGVEGNLEALAEYACKLSEQKEQLVETCRLLRHISGTEPLEITCIHAEETFQVTGQQIISAAETLTLHPSSKIAKENLDVFCEAWESQISDMSTLLREINDVFEGRRGEKYGYLSLPKPMKNNANLKSLKPDKPDSEEQAKIAKLGLKLGLLTSDADCEIEKWEDQENEIVQYGRNMSSMAYSLYLFTRGEGPLKTSQDLIHQLEVFAAEGLKLTSSVQAFSKQLKDDDKLMLLLEINKLIPLCHQLQTVTKTSLQNKVFLKVDKCITKTRSMMALLVQLLSLCYKLLKKLQMENNGWVSVTNKDTMDSKT [CTNNAL1]”: the “solubility in G1/S (log2)” value in the data set with HeLa Kyoto [1] was 0.208. The results for the melting temperature in the data set on HeLa Kyoto [2] (cell cycle stage: G1/S) and in the data set with HeLa Kyoto [2] (cell cycle stage: mitosis) were 47.7 °C and 48.9 °C, respectively. The “solubility change mitosis (log2)” value in the data set on HeLa Kyoto [3] was -0.111. Also, the thermal stability score is 0.258 with HeLa Kyoto [4] (setting [5]) and 1.63 in the data set with HeLa Kyoto [4] (cell cycle stage: mitosis).

Regarding “MDLNSASTVVLQVLTQATSQDTAVLKPAEEQLKQWETQPGFYSVLLNIFTNHTLDINVRWLAVLYFKHGIDRYWRRVAPHALSEEEKTTLRAGLITNFNEPINQIATQIAVLIAKVARLDCPRQWPELIPTLIESVKVQDDLRQHRALLTFYHVTKTLASKRLAADRKLFYDLASGIYNFACSLWNHHTDTFLQEVSSGNEAAILSSLERTLLSLKVLRKLTVNGFVEPHKNMEVMGFLHGIFERLKQFLECSRSIGTDNVCRDRLEKTIILFTKVLLDFLDQHPFSFTPLIQRSLEFSVSYVFTEVGEGVTFERFIVQCMNLIKMIVKNYAYKPSKNFEDSSPETLEAHKIKMAFFTYPTLTEICRRLVSHYFLLTEEELTMWEEDPEGFTVEETGGDSWKYSLRPCTEVLFIDIFHEYNQTLTPVLLEMMQTLQGPTNVEDMNALLIKDAVYNAVGLAAYELFDSVDFDQWFKNQLLPELQVIHNRYKPLRRRVIWLIGQWISVKFKSDLRPMLYEAICNLLQDQDLVVRIETATTLKLTVDDFEFRTDQFLPYLETMFTLLFQLLQQVTECDTKMHVLHVLSCVIERVNMQIRPYVGCLVQYLPLLWKQSEEHNMLRCAILTTLIHLVQGLGADSKNLYPFLLPVIQLSTDVSQPPHVYLLEDGLELWLVTLENSPCITPELLRIFQNMSPLLELSSENLRTCFKIINGYIFLSSTEFLQTYAVGLCQSFCELLKEITTEGQVQVLKVVENALKVNPILGPQMFQPILPYVFKGIIEGERYPVVMSTYLGVMGRVLLQNTSFFSSLLNEMAHKFNQEMDQLLGNMIEMWVDRMDNITQPERRKLSALALLSLLPSDNSVIQDKFCGIINISVEGLHDVMTEDPETGTYKDCMLMSHLEEPKVTEDEEPPTEQDKRKKMLALKDPVHTVSLQQFIYEKLKAQQEMLGEQGFQSLMETVDTEIVTQLQEFLQGF [IPO11]”, in the data set with HeLa Kyoto [1], the “solubility in G1/S (log2)” value was -0.209. Moreover, the results for the melting temperature in the data set on HeLa Kyoto [2] (cell cycle stage: G1/S) and in the data set on HeLa Kyoto [2] (cell cycle stage: mitosis) were 51.5 °C and 50.8 °C, respectively. Moreover, in the data set with HeLa Kyoto [3], the “solubility change mitosis (log2)” value was -0.25. Also, the values for the thermal stability score with HeLa Kyoto [4] (setting [5]) and in the data set with HeLa Kyoto [4] (cell cycle stage: mitosis) were 1.33 and 0.273, respectively.

For the sequence “MPHRKKKPFIEKKKAVSFHLVHRSQRDPLAADESAPQRVLLPTQKIDNEERRAEQRKYGVFFDDDYDYLQHLKEPSGPSELIPSSTFSAHNRREEKEETLVIPSTGIKLPSSVFASEFEEDVGLLNKAAPVSGPRLDFDPDIVAALDDDFDFDDPDNLLEDDFILQANKATGEEEGMDIQKSENEDDSEWEDVDDEKGDSNDDYDSAGLLSDEDCMSVPGKTHRAIADHLFWSEETKSRFTEYSMTSSVMRRNEQLTLHDERFEKFYEQYDDDEIGALDNAELEGSIQVDSNRLQEVLNDYYKEKAENCVKLNTLEPLEDQDLPMNELDESEEEEMITVVLEEAKEKWDCESICSTYSNLYNHPQLIKYQPKPKQIRISSKTGIPLNVLPKKGLTAKQTERIQMINGSDLPKVSTQPRSKNESKEDKRARKQAIKEERKERRVEKKANKLAFKLEKRRQEKELLNLKKNVEGLKL [LTV1]”, the “solubility in G1/S (log2)” value in the data set on HeLa Kyoto [1] was -0.271. The melting temperature with HeLa Kyoto [2] (cell cycle stage: G1/S) was found to be 50.1 °C; with HeLa Kyoto [2] (cell cycle stage: mitosis), 48.8 °C. Besides, the “solubility change mitosis (log2)” value with HeLa Kyoto [3] was -0.0961. Further, the thermal stability score with HeLa Kyoto [4] (setting [5]) was -2.27; in the data set with HeLa Kyoto [4] (cell cycle stage: mitosis) it was -0.672.

In the case of “MSGWADERGGEGDGRIYVGNLPTDVREKDLEDLFYKYGRIREIELKNRHGLVPFAFVRFEDPRDAEDAIYGRNGYDYGQCRLRVEFPRTYGGRGGWPRGGRNGPPTRRSDFRVLVSGLPPSGSWQDLKDHMREAGDVCYADVQKDGVGMVEYLRKEDMEYALRKLDDTKFRSHEGETSYIRVYPERSTSYGYSRSRSGSRGRDSPYQSRGSPHYFSPFRPY [SRSF9]”, the “solubility in G1/S (log2)” value in the data set with HeLa Kyoto [1] is -0.159. Besides, the melting temperature stood at 50 °C in the data set on HeLa Kyoto [2] (cell cycle stage: G1/S) and 50.6 °C in the data set on HeLa Kyoto [2] (cell cycle stage: mitosis). Moreover, the “solubility change mitosis (log2)” value in the data set with HeLa Kyoto [3] stood at 0.706. Moreover, the figures for the thermal stability score in the data set on HeLa Kyoto [4] (setting [5]) and in the data set on HeLa Kyoto [4] (cell cycle stage: mitosis) were -3.88 and -3.72, respectively.

On to “MKLKQRVVLLAILLVIFIFTKVFLIDNLDTSAANREDQRAFHRMMTGLRVELAPKLDHTLQSPWEIAAQWVVPREVYPEETPELGAVMHAMATKKIIKADVGYKGTQLKALLILEGGQKVVFKPKRYSRDHVVEGEPYAGYDRHNAEVAAFHLDRILGFHRAPLVVGRFVNLRTEIKPVATEQLLSTFLTVGNNTCFYGKCYYCRETEPACADGDIMEGSVTLWLPDVWPLQKHRHPWGRTYREGKLARWEYDESYCDAVKKTSPYDSGPRLLDIIDTAVFDYLIGNADRHHYESFQDDEGASMLILLDNAKSFGNPSLDERSILAPLYQCCIIRVSTWNRLNYLKNGVLKSALKSAMAHDPISPVLSDPHLDAVDQRLLSVLATVKQCTDQFGMDTVLVEDRMPLSHL [FAM20B]”, for which the “solubility in G1/S (log2)” value with HeLa Kyoto [1] is -0.162. The melting temperature with HeLa Kyoto [2] (cell cycle stage: G1/S) worked out at 51.8 °C; in the data set with HeLa Kyoto [2] (cell cycle stage: mitosis), 53.3 °C. The “solubility change mitosis (log2)” value in the data set with HeLa Kyoto [3] came to 0.0415. Moreover, the thermal stability score in the data set with HeLa Kyoto [4] (setting [5]) was determined as 2.65; in the data set with HeLa Kyoto [4] (cell cycle stage: mitosis), 2.53.

Values taken from the supplement of paper PMC5998384.
